Tests used:
[1] = target: T1, recombinant human PCSK9 protein, His-tagged (Immunogen A, hPCSK9-His) (human, UniProt Q8NBP7 31-692, limits assumed, biotin-labelled in the ELISA and blocking assays (Biotin labeling kit)); test: ELISA, biotin-hPCSK9-His on streptavidin plate; antibody 6.67 nM
T1 construct: also called human PCSK9-His; recombinant hPCSK9-His; not shown: His tag

[2] = target: T1, recombinant human PCSK9 protein, …; test: blocking ELISA, biotin-hPCSK9-His on coated LDLR ECD-His; antibody 8 nM
Experimental: (§1) Purified LDLR^ECD-His was diluted with PBS to a final concentration of 1.0 ug/ml, and 100 uL of diluted LDLR^ECD-His were added to each well of 96-well plate that was then sealed with plastic film and incubated at 4° C. overnight. The plate was washed twice with wash buffer [PBS+0.01% (v/v) Tween 20] and incubated with blocking buffer [PBS+0.01% (v/v) BSA+1% Tween20 (w/w)] at room temperature for 2 hours. […] The plate was washed three times with wash buffer [0.01% (v/v) Tween 20]. 100 uL HRP-conjugated streptavidin (Sigma) were then added to each well and incubated at 37° C. for 1 hour. The plate was then washed three times with wash buffer, and 100 uL TMB substrate were added to each well. After 15 minutes of incubation at room temperature, the reaction was stopped by adding 50 uL stop solution (0.1N HCl).

[3] = target: T1, recombinant human PCSK9 protein, …; test: blocking ELISA, biotin-hPCSK9-His on coated LDLR ECD-His; antibody 0.32 nM
Experimental: as §1

[4] = target: T1, recombinant human PCSK9 protein, …; test: ELISA, biotin-hPCSK9-His on streptavidin plate; antibody 0 nM (blank)
Experimental: (§2) The next day, the plates were washed twice with wash buffer [0.01% (v/v) Tween 20], then blocked with blocking buffer [0.01% (v/v) 0.1% BSA (w/w) Tween 20] at room temperature for 2 hours. […] Unbound PCSK9 proteins were removed by washing the plate three times with wash buffer [0.01% (v/v) Tween 20]. […] The plates were washed twice with wash buffer [0.01% (v/v) Tween 20], and 200 uL HRP-conjugated secondary antibody (Sigma) was added to each well and incubated for 2 hours at 37° C. After the plates were washed three times with wash buffer, 100 ul TMB substrate were added to each well and incubated for 30 minutes at room temperature. 100 ul stop solution (0.1N HCl) were added to each well to stop the reaction.

[5] = target: T1, recombinant human PCSK9 protein, …; test: ELISA, biotin-hPCSK9-His on streptavidin plate; antibody 0.00067 nM
Experimental: as §2

[6] = target: T1, recombinant human PCSK9 protein, …; test: blocking ELISA, biotin-hPCSK9-His on coated LDLR ECD-His; antibody 0.06 nM
Experimental: as §1

[7] = target: T1, recombinant human PCSK9 protein, …; test: blocking ELISA, biotin-hPCSK9-His on coated LDLR ECD-His; antibody 40 nM
Experimental: as §1

[8] = target: T1, recombinant human PCSK9 protein, …; test: ELISA, biotin-hPCSK9-His on streptavidin plate; antibody 0.067 nM
Experimental: as §2

[9] = target: T1, recombinant human PCSK9 protein, …; test: ELISA, biotin-hPCSK9-His on streptavidin plate; antibody 0.0067 nM
Experimental: as §2

[10] = target: T1, recombinant human PCSK9 protein, …; test: ELISA, biotin-hPCSK9-His on streptavidin plate; antibody 66.67 nM
Experimental: as §2

[11] = target: T1, recombinant human PCSK9 protein, …; test: blocking ELISA, biotin-hPCSK9-His on coated LDLR ECD-His; antibody 200 nM
Experimental: as §1

[12] = target: T1, recombinant human PCSK9 protein, …; test: ELISA, biotin-hPCSK9-His on streptavidin plate; antibody 0.000067 nM
Experimental: as §2

[13] = target: T1, recombinant human PCSK9 protein, …; test: ELISA, biotin-hPCSK9-His on streptavidin plate; antibody 0.67 nM
Experimental: as §2

[14] = target: T1, recombinant human PCSK9 protein, …; test: blocking ELISA, biotin-hPCSK9-His on coated LDLR ECD-His; antibody 0.01 nM
Experimental: as §1

[15] = target: T2, recombinant cyno monkey PCSK9 protein (cyno monkey, UniProt A8T666 31-692 (rhesus entry), limits assumed, biotin-labelled in the ELISA (Biotin labeling kit)); test: ELISA, biotin-cyno PCSK9 on streptavidin plate; antibody 0.0067 nM
T2 construct: also called cyno PCSK9; Cyno Monkey PCSK9-His
Experimental: as §2

[16] = target: T2, recombinant cyno monkey PCSK9 protein; test: ELISA, biotin-cyno PCSK9 on streptavidin plate; antibody 0 nM (blank)
Experimental: as §2

[17] = target: T2, recombinant cyno monkey PCSK9 protein; test: ELISA, biotin-cyno PCSK9 on streptavidin plate; antibody 0.067 nM
Experimental: as §2

[18] = target: T2, recombinant cyno monkey PCSK9 protein; test: ELISA, biotin-cyno PCSK9 on streptavidin plate; antibody 66.67 nM
Experimental: as §2

[19] = target: T1, recombinant human PCSK9 protein, …; test: blocking ELISA, biotin-hPCSK9-His on coated LDLR ECD-His; antibody 1.6 nM
Experimental: as §1

[20] = target: T2, recombinant cyno monkey PCSK9 protein; test: ELISA, biotin-cyno PCSK9 on streptavidin plate; antibody 0.00067 nM
Experimental: as §2

[21] = target: T2, recombinant cyno monkey PCSK9 protein; test: ELISA, biotin-cyno PCSK9 on streptavidin plate; antibody 0.67 nM
Experimental: as §2

[22] = target: T2, recombinant cyno monkey PCSK9 protein; test: ELISA, biotin-cyno PCSK9 on streptavidin plate; antibody 6.67 nM
Experimental: as §2

T2 sequence (A8T666 31-692 limits assumed): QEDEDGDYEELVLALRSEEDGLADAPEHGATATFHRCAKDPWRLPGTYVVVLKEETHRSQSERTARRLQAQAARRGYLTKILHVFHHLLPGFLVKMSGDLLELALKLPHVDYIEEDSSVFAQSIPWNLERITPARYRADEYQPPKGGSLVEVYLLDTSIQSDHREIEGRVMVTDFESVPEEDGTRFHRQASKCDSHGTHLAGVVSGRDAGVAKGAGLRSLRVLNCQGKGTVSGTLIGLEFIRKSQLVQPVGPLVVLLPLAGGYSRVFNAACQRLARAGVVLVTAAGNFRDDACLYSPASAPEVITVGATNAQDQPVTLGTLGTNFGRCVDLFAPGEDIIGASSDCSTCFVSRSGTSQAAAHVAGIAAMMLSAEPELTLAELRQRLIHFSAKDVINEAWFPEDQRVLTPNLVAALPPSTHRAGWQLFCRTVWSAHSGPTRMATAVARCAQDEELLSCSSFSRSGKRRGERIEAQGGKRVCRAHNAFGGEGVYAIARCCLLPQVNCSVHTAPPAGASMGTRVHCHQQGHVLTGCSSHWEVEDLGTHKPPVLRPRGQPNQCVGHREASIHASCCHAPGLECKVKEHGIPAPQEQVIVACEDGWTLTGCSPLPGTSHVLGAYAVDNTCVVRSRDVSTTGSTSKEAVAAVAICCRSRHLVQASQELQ

Row | Binder | OD450 nm [1] [OD450 nm] | OD450 nm (PCSK9 bound to LDLR) [2] [OD450 nm] | OD450 nm (PCSK9 bound to LDLR) [3] [OD450 nm] | OD450 nm [4] [OD450 nm] | OD450 nm [5] [OD450 nm] | OD450 nm (PCSK9 bound to LDLR) [6] [OD450 nm] | OD450 nm (PCSK9 bound to LDLR) [7] [OD450 nm] | OD450 nm [8] [OD450 nm] | OD450 nm [9] [OD450 nm] | OD450 nm [10] [OD450 nm] | OD450 nm (PCSK9 bound to LDLR) [11] [OD450 nm] | OD450 nm [12] [OD450 nm] | OD450 nm [13] [OD450 nm] | OD450 nm (PCSK9 bound to LDLR) [14] [OD450 nm] | further results
1 | 103C11E8, chimeric anti-PCSK9 mAb purified from hybridoma (antibody, V domains shown, From Harbour H2L2 mice: human variable regions, rat constant regions) VH: QVQLQESGPGLVKPSGTLSLTCAVSGGSISSSNWWSWVRQPPGKGLEWIGEIYHSGSTNYNPSLKSRVTISVDKSKNQFSLKLSSVTAADTAVYYCARGIAVAGTDVMDAWGQGASVTVSS VL: EIVLTQSPATLSLSPGERATLSCRASQSVSSYLVWYQQKSGQAPRLLIYGTSNRATGIPARFSGSGSGTDFTLTISSLEPEDFALYYCQQRGNWMYTFGQGTKLEIK | 2.71 | 0.87 | 0.92 | 0.14 | 0.15 | 0.96 | 0.77 | 0.68 | 0.21 | 2.72 | 0.54 | 0.11 | 2.41 | 0.97 | 
2 | 96F8C6, chimeric anti-PCSK9 mAb purified from hybridoma (antibody, V domains shown, From Harbour H2L2 mice: human variable regions, rat constant regions) VH: EVQLVESGGGLVQPGGSLRLSCAASGITFSSYWMSWVRQAPGKGLEWVANIKQDGSEKYYVDSVKGRFTISRDIAKNSLYLQMNSLRAEDTAVYYCARDRGTYYYGSGSYNYYYYGMDVWGQGTTVTVSS VL: not shown | 2.89 | 0.53 | 1.16 | 0.2 | 0.18 | 1.25 | 0.45 | 1 | 0.3 | 2.86 | 0.63 | 0.17 | 2.73 | 1.19 | OD450 nm [15]: 0.25 OD450 nm; OD450 nm [16]: 0.25 OD450 nm; OD450 nm [17]: 0.77 OD450 nm; OD450 nm [18]: 2.87 OD450 nm; OD450 nm (PCSK9 bound to LDLR) [19]: 0.97 OD450 nm; OD450 nm [20]: 0.23 OD450 nm; OD450 nm [21]: 2.26 OD450 nm; OD450 nm [22]: 2.58 OD450 nm

Reference: patent US20180355059A1 (PHARMAEXPLORER, published 2018)
